Residue numbers refer to the chain shown, from its start.

Experimental findings from US20250163127A1 (published 2025) are described below.

Experiment [1] concerns the target human PD-1 (human, UniProt Q15116). In words: flow cytometry, Jurkat/IL-2/PD-1 cells. Background: A flow cytometer gives signals particle by particle.
In experiment [2] the target is T1, CD80 (human).
T1 chain: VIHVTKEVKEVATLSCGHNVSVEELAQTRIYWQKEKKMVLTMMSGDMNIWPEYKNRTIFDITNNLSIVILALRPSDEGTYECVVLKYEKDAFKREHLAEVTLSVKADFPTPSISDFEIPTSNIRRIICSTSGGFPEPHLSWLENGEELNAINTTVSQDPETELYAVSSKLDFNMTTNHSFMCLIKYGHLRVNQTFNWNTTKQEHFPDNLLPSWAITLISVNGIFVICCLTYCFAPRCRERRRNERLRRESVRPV
As to the kind of experiment: flow cytometry, CHO-CD80 cells.

For experiment [3], the target named is PD-1 (human, UniProt Q15116). In words: cell-based or functional assay.

B1: CTLA-4 3037-PD-L1 303-Fc (Fc fusion)
chain: KAMHVAQPAVVLASSRGIASFVCEYASPWKATEVRVTVLRQADSQVTEVCAATYMMGSELTFPDDSICTGTSSGNQVNLTIRGLRAMDTGLYICKVEQMYPPPYLLGIGNGTQIYVIDPEPCPDSDGSGGSGGGGSGGGGSFTVTVPKDLYVVEYGSNMTIECKFPVEKQLDLAALIVYWEMEGKDIIQFVHGEEDQKAQHSSYRQRARLLKDQLSLGNAALQITDVKLQDAGVYRCMISYGGGADYKRITVKVNAGGGGSGSGGGGSEPKSSDKTHTCPPCPAPEAEGAPSVFLFPPKPKDTLMISRTPEVTCVVVDVSHEDPEVKFNWYVDGVEVHNAKTKPREEQYNSTYRVVSVLTVLHQDWLNGKEYKCKVSNKALPAPIEKTISKAKGQPREPQVYTLPPSRDELTKNQVSLTCLVKGFYPSDIAVEWESNGQPENNYKTTPPVLDSDGSFFLYSKLTVDKSRWQQGNVFSCSVMHEALHNHYTQKSLSLSPG
Regarding B1, the EC50 (commonly the midpoint of the concentration-response curve) is 111 nM in experiment [1] and 2.3 nM in experiment [2].

B2: CTLA-4 3060-PD-L1 303-Fc (Fc fusion)
chain: B1 chain with L12F, R16H, M56T, S58N, P63L, R82Q
Turning to B2, the figures for the EC50 in experiment [1] and in experiment [2] were 0.6 nM and 2.3 nM, respectively.

B3: PD-L1 303-COMP (other)
chain: FTVTVPKDLYVVEYGSNMTIECKFPVEKQLDLAALIVYWEMEGKDIIQFVHGEEDQKAQHSSYRQRARLLKDQLSLGNAALQITDVKLQDAGVYRCMISYGGGADYKRITVKVNAGGGGSGGGGSGGGGSDLGPQMLRELQETNAALQDVRELLRQQVREITFLKNTVMECDACGDYKDDDDKHHHHHH
For B3, the “% CD25 Hi FoxP3 +” value in experiment [3] amounted to 23.5 % at 100 nM.

B4: PD-L1 303-Fc (SEQ ID NO 3531) (Fc fusion)
chain: FTVTVPKDLYVVEYGSNMTIECKFPVEKQLDLAALIVYWEMEGKDIIQFVHGEEDQKAQHSSYRQRARLLKDQLSLGNAALQITDVKLQDAGVYRCMISYGGGADYKRITVKVNAGGGGSGGGGSEPKSSDKTHTCPPCPAPEAEGAPSVFLFPPKPKDTLMISRTPEVTCVVVDVSHEDPEVKFNWYVDGVEVHNAKTKPREEQYNSTYRVVSVLTVLHQDWLNGKEYKCKVSNKALPAPIEKTISKAKGQPREPQVYTLPPCREEMTKNQVSLWCLVKGFYPSDIAVEWESNGQPENNYKTTPPVLDSDGSFFLYSKLTVDKSRWQQGNVFSCSVMHEALHNHYTQKSLSLSPG
As for B4, the “% CD25 Hi FoxP3 +” value in experiment [3] is 24.8 % at 100 nM.

B5: CTLA4 3037-Fc-PD-L1 303 (SEQ ID NO 3672) (Fc fusion)
chain: KAMHVAQPAVVLASSRGIASFVCEYASPWKATEVRVTVLRQADSQVTEVCAATYMMGSELTFPDDSICTGTSSGNQVNLTIRGLRAMDTGLYICKVEQMYPPPYLLGIGNGTQIYVIDPEPCPDSDGSGGGGSEPKSSDKTHTCPPCPAPEAEGAPSVFLFPPKPKDTLMISRTPEVTCVVVDVSHEDPEVKFNWYVDGVEVHNAKTKPREEQYNSTYRVVSVLTVLHQDWLNGKEYKCKVSNKALPAPIEKTISKAKGQPREPQVYTLPPSRDELTKNQVSLTCLVKGFYPSDIAVEWESNGQPENNYKTTPPVLDSDGSFFLYSKLTVDKSRWQQGNVFSCSVMHEALHNHYTQKSLSLSPGGGGGSGGGGSGGGGSAFTVTVPKDLYVVEYGSNMTIECKFPVEKQLDLAALIVYWEMEGKDIIQFVHGEEDQKAQHSSYRQRARLLKDQLSLGNAALQITDVKLQDAGVYRCMISYGGGADYKRITVKVNA
Regarding B5, the EC50 worked out at 6.8 nM in experiment [1] and 0.921 nM in experiment [2].

B6: PD-L1 303-CTLA-4 3037-Fc (Fc fusion)
chain: FTVTVPKDLYVVEYGSNMTIECKFPVEKQLDLAALIVYWEMEGKDIIQFVHGEEDQKAQHSSYRQRARLLKDQLSLGNAALQITDVKLQDAGVYRCMISYGGGADYKRITVKVNAGSGGSGGGGSGGGGSKAMHVAQPAVVLASSRGIASFVCEYASPWKATEVRVTVLRQADSQVTEVCAATYMMGSELTFPDDSICTGTSSGNQVNLTIRGLRAMDTGLYICKVEQMYPPPYLLGIGNGTQIYVIDPEPCPDSDGGGGSGSGGGGSEPKSSDKTHTCPPCPAPEAEGAPSVFLFPPKPKDTLMISRTPEVTCVVVDVSHEDPEVKFNWYVDGVEVHNAKTKPREEQYNSTYRVVSVLTVLHQDWLNGKEYKCKVSNKALPAPIEKTISKAKGQPREPQVYTLPPSRDELTKNQVSLTCLVKGFYPSDIAVEWESNGQPENNYKTTPPVLDSDGSFFLYSKLTVDKSRWQQGNVFSCSVMHEALHNHYTQKSLSLSPG
Regarding B6, the EC50 turned out to be 1 nM in experiment [1] and 1.4 nM in experiment [2].

B7: PD-L1 303-CTLA4 3060-Fc (Fc fusion)
chain: B6 chain with L142F, R146H, M186T, S188N, P193L, R212Q
For the molecule B7, the EC50 is 0.5 nM in experiment [1] and 3.4 nM in experiment [2].

B8: CTLA-4 3037-Fc-PD-L1 303 (SEQ ID NO 3670) (Fc fusion)
chain: KAMHVAQPAVVLASSRGIASFVCEYASPWKATEVRVTVLRQADSQVTEVCAATYMMGSELTFPDDSICTGTSSGNQVNLTIRGLRAMDTGLYICKVEQMYPPPYLLGIGNGTQIYVIDPEPCPDSDGSGGGGSEPKSSDKTHTCPPCPAPEAEGAPSVFLFPPKPKDTLMISRTPEVTCVVVDVSHEDPEVKFNWYVDGVEVHNAKTKPREEQYNSTYRVVSVLTVLHQDWLNGKEYKCKVSNKALPAPIEKTISKAKGQPREPQVYTLPPSRDELTKNQVSLTCLVKGFYPSDIAVEWESNGQPENNYKTTPPVLDSDGSFFLYSKLTVDKSRWQQGNVFSCSVMHEALHNHYTQKSLSLSPGGGGGSGGGGSGGGGSFTVTVPKDLYVVEYGSNMTIECKFPVEKQLDLAALIVYWEMEGKDIIQFVHGEEDQKAQHSSYRQRARLLKDQLSLGNAALQITDVKLQDAGVYRCMISYGGGADYKRITVKVNA
For the molecule B8, the EC50 in experiment [1] was 4.5 nM; in experiment [2] it was 1.9 nM.

B9: PD-L1 303-Fc + Fc (Fc fusion)
chain 1: HMSSVSAQAAAEPKSSDKTHTCPPCPAPEAEGAPSVFLFPPKPKDTLMISRTPEVTCVVVDVSHEDPEVKFNWYVDGVEVHNAKTKPREEQYNSTYRVVSVLTVLHQDWLNGKEYKCKVSNKALPAPIEKTISKAKGQPREPQVYTLPPCREEMTKNQVSLWCLVKGFYPSDIAVEWESNGQPENNYKTTPPVLDSDGSFFLYSKLTVDKSRWQQGNVFSCSVMHEALHNHYTQKSLSLSPGK
chain 2: FTVTVPKDLYVVEYGSNMTIECKFPVEKQLDLAALIVYWEMEGKDIIQFVHGEEDQKAQHSSYRQRARLLKDQLSLGNAALQITDVKLQDAGVYRCMISYGGGADYKRITVKVNAGSGGSGGGGSGGGGSEPKSSDKTHTCPPCPAPEAEGAPSVFLFPPKPKDTLMISRTPEVTCVVVDVSHEDPEVKFNWYVDGVEVHNAKTKPREEQYNSTYRVVSVLTVLHQDWLNGKEYKCKVSNKALPAPIEKTISKAKGQPREPQVCTLPPSREEMTKNQVSLSCAVKGFYPSDIAVEWESNGQPENNYKTTPPVLDSDGSFFLVSKLTVDKSRWQQGNVFSCSVMHEALHNHYTQKSLSLSPGHHHHHH
For the molecule B9, the “% CD25 Hi FoxP3 +” value in experiment [3] amounted to 25.9 % at 100 nM.

B10: PD-L2 1417-Fc + Fc (Fc fusion)
chain 1: B9 chain 1
chain 2: LFTVTVPKELYIIEQGSNVTLECNFDTGSHVNLGAITASLQKVENDASPHRERATLLEEQLPLGRALFHIPQVQVRDEGQYRCIIIYGDAWDYKYLTLKVKAGSGGSGGGGSGGGGSEPKSSDKTHTCPPCPAPEAEGAPSVFLFPPKPKDTLMISRTPEVTCVVVDVSHEDPEVKFNWYVDGVEVHNAKTKPREEQYNSTYRVVSVLTVLHQDWLNGKEYKCKVSNKALPAPIEKTISKAKGQPREPQVCTLPPSREEMTKNQVSLSCAVKGFYPSDIAVEWESNGQPENNYKTTPPVLDSDGSFFLVSKLTVDKSRWQQGNVFSCSVMHEALHNHYTQKSLSLSPGHHHHHH
As for B10, in experiment [3], the “% CD25 Hi FoxP3 +” value is 26.8 % at 100 nM.

B11: CTLA4 3037-Fc (Fc fusion)
chain: KAMHVAQPAVVLASSRGIASFVCEYASPWKATEVRVTVLRQADSQVTEVCAATYMMGSELTFPDDSICTGTSSGNQVNLTIRGLRAMDTGLYICKVEQMYPPPYLLGIGNGTQIYVIDPEPCPDSDGSGGGGSEPKSSDKTHTCPPCPAPEAEGAPSVFLFPPKPKDTLMISRTPEVTCVVVDVSHEDPEVKFNWYVDGVEVHNAKTKPREEQYNSTYRVVSVLTVLHQDWLNGKEYKCKVSNKALPAPIEKTISKAKGQPREPQVYTLPPSRDELTKNQVSLTCLVKGFYPSDIAVEWESNGQPENNYKTTPPVLDSDGSFFLYSKLTVDKSRWQQGNVFSCSVMHEALHNHYTQKSLSLSPG
B11: the EC50 in experiment [2] came out at 1.7 nM.
